Source: patent US20130089497A1 (Genentech, published 2013)

Key:
[1] = biological target: T1, gD tagged human FcRH6 on SVT2 cells (human, UniProt Q6DN72 20-434); test: FACS, SVT2.MSCV.gD.FcRH6 cells, PE secondary antibody
T1 construct: whole, on cells; also called huFcRH6; not shown: gD tag; the construct for this FcRH is not described
T1 sequence (looked up): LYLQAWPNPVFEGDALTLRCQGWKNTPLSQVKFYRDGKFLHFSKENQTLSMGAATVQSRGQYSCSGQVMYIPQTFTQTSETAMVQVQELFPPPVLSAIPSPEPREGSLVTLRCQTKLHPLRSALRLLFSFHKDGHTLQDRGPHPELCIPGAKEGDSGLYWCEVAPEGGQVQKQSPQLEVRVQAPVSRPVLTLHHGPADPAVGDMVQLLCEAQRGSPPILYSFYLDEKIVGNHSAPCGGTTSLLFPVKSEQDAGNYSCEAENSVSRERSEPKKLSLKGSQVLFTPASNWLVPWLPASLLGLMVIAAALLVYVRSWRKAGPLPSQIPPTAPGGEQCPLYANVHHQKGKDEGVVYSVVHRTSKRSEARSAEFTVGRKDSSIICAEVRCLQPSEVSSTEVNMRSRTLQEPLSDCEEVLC

[2] = biological target: T2, human FcRH5 on stably transfected cells (BJAB.huFcRH5, OPM2.huFcRH5) (human, UniProt Q96RD9 16-977); test: Scatchard analysis: 0.5 nM 125I-labeled antibody competed with the unlabeled antibody (50 to 0.02 nM) on BJAB.huFcRH5 cells, 4 h at 4 C; St. Error 0.007
T2 construct: also called BJAB-FcRH5; OPM2-FcRH5
T2 chain: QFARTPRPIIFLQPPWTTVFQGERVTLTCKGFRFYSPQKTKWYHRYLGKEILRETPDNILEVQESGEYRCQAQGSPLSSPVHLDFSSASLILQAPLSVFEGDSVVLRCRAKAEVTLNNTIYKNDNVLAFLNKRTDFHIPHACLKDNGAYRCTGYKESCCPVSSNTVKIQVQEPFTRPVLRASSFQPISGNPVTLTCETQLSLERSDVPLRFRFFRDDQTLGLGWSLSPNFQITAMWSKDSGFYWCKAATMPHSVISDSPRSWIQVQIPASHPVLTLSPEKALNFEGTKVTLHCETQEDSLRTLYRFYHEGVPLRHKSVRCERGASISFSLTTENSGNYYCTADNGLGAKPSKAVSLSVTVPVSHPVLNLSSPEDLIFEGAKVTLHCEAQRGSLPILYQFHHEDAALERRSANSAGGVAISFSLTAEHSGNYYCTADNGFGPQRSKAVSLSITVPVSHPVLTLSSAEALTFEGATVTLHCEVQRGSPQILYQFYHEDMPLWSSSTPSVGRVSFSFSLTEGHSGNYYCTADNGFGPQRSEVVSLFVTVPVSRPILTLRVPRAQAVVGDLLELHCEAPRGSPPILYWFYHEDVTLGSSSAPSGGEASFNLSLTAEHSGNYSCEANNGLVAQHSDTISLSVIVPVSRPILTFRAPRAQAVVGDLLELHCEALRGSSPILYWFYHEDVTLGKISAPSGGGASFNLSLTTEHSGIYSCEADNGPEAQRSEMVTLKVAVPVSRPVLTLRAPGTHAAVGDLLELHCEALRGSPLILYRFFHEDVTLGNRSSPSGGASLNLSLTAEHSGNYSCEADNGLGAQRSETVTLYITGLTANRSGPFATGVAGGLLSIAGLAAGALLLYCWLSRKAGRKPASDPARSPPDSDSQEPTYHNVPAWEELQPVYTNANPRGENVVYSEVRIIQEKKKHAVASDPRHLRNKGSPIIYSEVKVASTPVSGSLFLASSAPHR

[3] = biological target: T3, cynomolgus FcRH5 on stably transfected SVT2 cells (cynomologous monkey); test: Scatchard analysis: 0.5 nM 125I-labeled antibody competed with the unlabeled antibody (50 to 0.02 nM) on SVT2.cyFcRH5 cells, 4 h at 4 C; St. Error 0.064
T3 construct: also called cyno FcRH5; cynoFcRH5
T3 chain: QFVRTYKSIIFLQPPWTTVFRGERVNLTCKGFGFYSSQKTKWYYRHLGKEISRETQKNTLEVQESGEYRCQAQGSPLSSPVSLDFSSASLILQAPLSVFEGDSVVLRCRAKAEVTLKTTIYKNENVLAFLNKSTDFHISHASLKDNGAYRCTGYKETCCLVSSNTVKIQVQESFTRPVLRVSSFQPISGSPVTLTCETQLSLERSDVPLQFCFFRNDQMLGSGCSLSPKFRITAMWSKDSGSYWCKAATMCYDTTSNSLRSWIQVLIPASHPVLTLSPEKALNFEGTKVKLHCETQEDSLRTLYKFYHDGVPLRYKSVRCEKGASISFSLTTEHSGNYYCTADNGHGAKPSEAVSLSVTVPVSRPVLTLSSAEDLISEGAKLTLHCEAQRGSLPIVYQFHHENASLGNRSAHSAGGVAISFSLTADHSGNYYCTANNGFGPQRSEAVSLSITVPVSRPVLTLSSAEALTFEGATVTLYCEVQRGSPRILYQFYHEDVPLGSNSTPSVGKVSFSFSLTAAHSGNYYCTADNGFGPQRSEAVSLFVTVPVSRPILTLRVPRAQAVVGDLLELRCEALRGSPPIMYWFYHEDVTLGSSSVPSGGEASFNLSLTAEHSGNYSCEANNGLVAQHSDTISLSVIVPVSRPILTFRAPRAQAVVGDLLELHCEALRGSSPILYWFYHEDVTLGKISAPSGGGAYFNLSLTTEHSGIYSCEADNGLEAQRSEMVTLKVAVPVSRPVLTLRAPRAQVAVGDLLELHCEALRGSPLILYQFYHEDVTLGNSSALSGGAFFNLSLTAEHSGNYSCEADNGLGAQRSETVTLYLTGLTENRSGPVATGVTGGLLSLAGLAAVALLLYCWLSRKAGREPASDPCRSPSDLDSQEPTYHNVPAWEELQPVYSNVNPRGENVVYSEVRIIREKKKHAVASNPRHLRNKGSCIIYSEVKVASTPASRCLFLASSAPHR
Description: To further determine binding of the FcRH5 murine antibodies and IgG clones, binding of iodinated IgG variants to OPM2 cells expressing human FcRH5 and SVT2 cells expressing cynomologous FcRH5, Scatchard analysis was performed (Table 9A).
For Scatchard analysis, 0.5 nM I¹²⁵ labeled murine or IgG clone anti-FcRH5 was competed against unlabeled murine or IgG clone anti-FcRH5, respectively, ranging from 50 to 0.02 nM (12 step 1:2 serial dilution) in the presence of a transfected OPM2 line stably expressing human-FcRH5 and a transfected SVT2 line stably expressing cynomologous-FcRH5. After a four hour incubation at 4° C., cells were washed and cell pellet counts were read by a gamma counter (1470 WIZARD Automatic Gamma Counter; Perkin Elmer, Walthem, Mass.). All points were done in triplicate and counted for 10 minutes. The average CPM was used for Kd calculation using the New Ligand (Genentech, South San Francisco, Calif.) program.

B1: murine monoclonal antibody anti-FcRH5-13G9 (antibody, V domains shown)
VH: EVQLVQSGPELKKPGETVKISCKASGYTFTNYGMNWVKQAPGKGLKWMGWVNTYTGEPTYTDDFKGRFAFSVETSASTVFLQINNLKNEDTATYFCARRSIPYYYAMDYWGQGTSLT
VL: DIVMTQSQKIMSTSVGDRVNVTCKASQNVGSNVAWYHQKPGQSPKALIYSASYRYSGVPDRFTGSGSGTDFTLTISNVQSEDLAEYFCQQYKTWTFGGGTKLEIKR
notes: Whole murine IgG from hybridoma; also called 13G9.1.1; mu13G9
**Q.** What does the source list for B1?
**A.** binding result [1]: no binding (tested: 1.0 ug per about 10^6 cells (p-1120)); Kd [2]: 0.13 nM; Kd [3]: 0.54 nM
